# From patent US10941182 (Amgen, dated 2021)
# Starred links: 1 amine or outer side, 2 acyl side, 3 side chain; linkers in the order of their positions; H or OH if unused. Non-standard residues stand in square brackets, D forms with d. *: point of attachment. AC4Abu = α-carboxy-4-aminobutyric acid, O=C(C(CCN[*:1])C(=O)[*:3])[*:2]; dBip = N[C@H](Cc1ccc(-c2ccccc2)cc1)C(=O)O; Oic = O=C(O)[C@@H]1C[C@@H]2CCCC[C@@H]2N1; Phe(4-Cl) = N[C@@H](Cc1ccc(Cl)cc1)C(=O)O; dPhe(4-Cl) = N[C@H](Cc1ccc(Cl)cc1)C(=O)O; Phe(4-I) = N[C@@H](Cc1ccc(I)cc1)C(=O)O; γGlu = O=C(O)[C@H](CCC(=O)[*:2])N[*:1]; NMeR = CN[C@@H](CCCNC(=N)N)C(=O)O; Tridecanoyl = CCCCCCCCCCCCC(=O)*; hArg = N=C(N)NCCCC[C@H](N)C(=O)O; Cha = N[C@@H](CC1CCCCC1)C(=O)O; NMeL = CN[C@@H](CC(C)C)C(=O)O; αMeL = CC(C)C[C@](C)(N)C(=O)O; β3hN = NC(=O)C[C@H](N)CC(=O)O; β3hL = CC(C)C[C@H](N)CC(=O)O; αMeP = C[C@@]1(C(=O)O)CCCN1; Nle = CCCC[C@H](N)C(=O)O; Deg = CCC(N)(CC)C(=O)O; AEEA = NCCOCCOCC(=O)O; BLeu = β-leucine
# B1: SEQ ID NO: 420 (peptide)
# peptide: Tridecanoyl-[γGlu][AEEA][AEEA][β3hN]RP[NMeR]LSHKGP[Nle]P[Phe(4-Cl)]-OH
# SMILES: CCCCCCCCCCCCC(=O)N[C@@H](CCC(=O)NCCOCCOCC(=O)NCCOCCOCC(=O)N[C@@H](CC(N)=O)CC(=O)N[C@@H](CCCNC(=N)N)C(=O)N1CCC[C@H]1C(=O)N(C)[C@@H](CCCNC(=N)N)C(=O)N[C@@H](CC(C)C)C(=O)N[C@@H](CO)C(=O)N[C@@H](Cc1c[nH]cn1)C(=O)N[C@@H](CCCCN)C(=O)NCC(=O)N1CCC[C@H]1C(=O)N[C@@H](CCCC)C(=O)N1CCC[C@H]1C(=O)N[C@@H](Cc1ccc(Cl)cc1)C(=O)O)C(=O)O
# B2: SEQ ID NO: 300 (peptide)
# peptide: Tridecanoyl-[γGlu][AEEA][AEEA][β3hL][hArg]P[NMeR][Cha]SHKG[Oic][Nle]P[dPhe(4-Cl)]-OH
# SMILES: CCCCCCCCCCCCC(=O)N[C@@H](CCC(=O)NCCOCCOCC(=O)NCCOCCOCC(=O)N[C@H](CC(=O)N[C@@H](CCCCNC(=N)N)C(=O)N1CCC[C@H]1C(=O)N(C)[C@@H](CCCNC(=N)N)C(=O)N[C@@H](CC1CCCCC1)C(=O)N[C@@H](CO)C(=O)N[C@@H](Cc1c[nH]cn1)C(=O)N[C@@H](CCCCN)C(=O)NCC(=O)N1[C@H](C(=O)N[C@@H](CCCC)C(=O)N2CCC[C@H]2C(=O)N[C@H](Cc2ccc(Cl)cc2)C(=O)O)C[C@@H]2CCCC[C@@H]21)CC(C)C)C(=O)O
# B3: SEQ ID NO: 421 (peptide)
# peptide: XXXLRPRLSHKGPXPF
# modifications: {TDA}[AC4Abu][Aeea][Aeea][BhLeu]RP[NMeArg]LSHKGP[Nle]P[4-Cl-F]{COOH}
# B4: SEQ ID NO: 298 (peptide)
# peptide: Tridecanoyl-[γGlu][AEEA][AEEA][BLeu][hArg]P[NMeR][Cha]SHKG[Oic][Nle]P[dPhe(4-Cl)]-OH
# B5: SEQ ID NO: 552 (peptide)
# peptide: Tridecanoyl-[AC4Abu][AEEA][AEEA][BLeu]R[αMeP][hArg][αMeL]SHKG[Oic][Nle][αMeP][Phe(4-Cl)]-OH
# B6: SEQ ID NO: 395 (peptide)
# peptide: Tridecanoyl-[γGlu][AEEA][AEEA][BLeu]RP[hArg][BLeu]SHKG[Oic][Nle]P[Phe(4-Cl)]-OH
# B7: SEQ ID NO: 374 (peptide)
# peptide: Tridecanoyl-[γGlu][AEEA][AEEA][BLeu]RP[NMeR][αMeL]SHKG[Oic][Nle]P[Phe(4-Cl)]-OH
# B8: SEQ ID NO: 388 (peptide)
# peptide: Tridecanoyl-[γGlu][AEEA][AEEA][BLeu]RP[NMeR][αMeL]SHKG[Oic][Nle][αMeP][Phe(4-Cl)]-OH
# B9: SEQ ID NO: 394 (peptide)
# peptide: Tridecanoyl-[γGlu][AEEA][AEEA][BLeu]RP[NMeR][BLeu]SHKG[Oic][Nle]P[Phe(4-Cl)]-OH
# B10: SEQ ID NO: 393 (peptide)
# peptide: Tridecanoyl-[γGlu][AEEA][AEEA][BLeu]RP[NMeR][Cha]SHKG[Oic][Nle]P[Phe(4-Cl)]-OH
# B11: SEQ ID NO: 558 (peptide)
# peptide: Tridecanoyl-[AC4Abu][AEEA][AEEA][Deg][hArg]P[dR][Cha]SHKG[Oic][Nle]P[Phe(4-Cl)]-OH
# SMILES: CCCCCCCCCCCCC(=O)NCCC(C(=O)O)C(=O)NCCOCCOCC(=O)NCCOCCOCC(=O)NC(CC)(CC)C(=O)N[C@@H](CCCCNC(=N)N)C(=O)N1CCC[C@H]1C(=O)N[C@H](CCCNC(=N)N)C(=O)N[C@@H](CC1CCCCC1)C(=O)N[C@@H](CO)C(=O)N[C@@H](Cc1c[nH]cn1)C(=O)N[C@@H](CCCCN)C(=O)NCC(=O)N1[C@H](C(=O)N[C@@H](CCCC)C(=O)N2CCC[C@H]2C(=O)N[C@@H](Cc2ccc(Cl)cc2)C(=O)O)C[C@@H]2CCCC[C@@H]21
# B12: SEQ ID NO: 443 (peptide)
# peptide: Tridecanoyl-[γGlu][AEEA][AEEA][Deg]RP[NMeR][Cha]SHKG[Oic][Nle]P[Phe(4-Cl)]-OH
# SMILES: CCCCCCCCCCCCC(=O)N[C@@H](CCC(=O)NCCOCCOCC(=O)NCCOCCOCC(=O)NC(CC)(CC)C(=O)N[C@@H](CCCNC(=N)N)C(=O)N1CCC[C@H]1C(=O)N(C)[C@@H](CCCNC(=N)N)C(=O)N[C@@H](CC1CCCCC1)C(=O)N[C@@H](CO)C(=O)N[C@@H](Cc1c[nH]cn1)C(=O)N[C@@H](CCCCN)C(=O)NCC(=O)N1[C@H](C(=O)N[C@@H](CCCC)C(=O)N2CCC[C@H]2C(=O)N[C@@H](Cc2ccc(Cl)cc2)C(=O)O)C[C@@H]2CCCC[C@@H]21)C(=O)O
# B13: SEQ ID NO: 321 (peptide)
# peptide: Tridecanoyl-[γGlu][AEEA][AEEA][hArg][Nle]Q[hArg]P[dR][NMeL]AHKG[Oic][Phe(4-I)]P[dBip]-OH
# SMILES: CCCCCCCCCCCCC(=O)N[C@@H](CCC(=O)NCCOCCOCC(=O)NCCOCCOCC(=O)N[C@@H](CCCCNC(=N)N)C(=O)N[C@@H](CCCC)C(=O)N[C@@H](CCC(N)=O)C(=O)N[C@@H](CCCCNC(=N)N)C(=O)N1CCC[C@H]1C(=O)N[C@H](CCCNC(=N)N)C(=O)N(C)[C@@H](CC(C)C)C(=O)N[C@@H](C)C(=O)N[C@@H](Cc1c[nH]cn1)C(=O)N[C@@H](CCCCN)C(=O)NCC(=O)N1[C@H](C(=O)N[C@@H](Cc2ccc(I)cc2)C(=O)N2CCC[C@H]2C(=O)N[C@H](Cc2ccc(-c3ccccc3)cc2)C(=O)O)C[C@@H]2CCCC[C@@H]21)C(=O)O
# B14: SEQ ID NO: 333 (peptide)
# peptide: Tridecanoyl-[γGlu][AEEA][AEEA][hArg][Nle]Q[hArg]P[dR][NMeL]AAKG[Oic][Phe(4-I)]P[dBip]-OH
# SMILES: CCCCCCCCCCCCC(=O)N[C@@H](CCC(=O)NCCOCCOCC(=O)NCCOCCOCC(=O)N[C@@H](CCCCNC(=N)N)C(=O)N[C@@H](CCCC)C(=O)N[C@@H](CCC(N)=O)C(=O)N[C@@H](CCCCNC(=N)N)C(=O)N1CCC[C@H]1C(=O)N[C@H](CCCNC(=N)N)C(=O)N(C)[C@@H](CC(C)C)C(=O)N[C@@H](C)C(=O)N[C@@H](C)C(=O)N[C@@H](CCCCN)C(=O)NCC(=O)N1[C@H](C(=O)N[C@@H](Cc2ccc(I)cc2)C(=O)N2CCC[C@H]2C(=O)N[C@H](Cc2ccc(-c3ccccc3)cc2)C(=O)O)C[C@@H]2CCCC[C@@H]21)C(=O)O
# Biological target: T1, rat APJ receptor (rat, UniProt Q9JHG3 1-377)
# T1 sequence (looked up): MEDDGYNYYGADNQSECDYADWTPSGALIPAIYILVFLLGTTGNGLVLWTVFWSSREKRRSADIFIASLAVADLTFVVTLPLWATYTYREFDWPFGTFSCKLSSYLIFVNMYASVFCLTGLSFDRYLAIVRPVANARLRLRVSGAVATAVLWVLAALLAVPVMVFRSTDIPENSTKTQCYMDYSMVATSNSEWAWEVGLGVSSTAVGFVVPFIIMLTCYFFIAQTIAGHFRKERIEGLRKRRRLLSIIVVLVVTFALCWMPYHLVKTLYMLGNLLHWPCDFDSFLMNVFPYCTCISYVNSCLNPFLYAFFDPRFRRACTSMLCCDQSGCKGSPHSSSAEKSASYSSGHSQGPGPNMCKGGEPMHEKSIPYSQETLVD
# Assay: cell-based or functional assay
row,Binder,EC50 Rat APJ Receptor [nM]
1,B1,0.0838
2,B2,36.4
3,B3,0.285
4,B4,24.9
5,B5,4.88
6,B6,1.02
7,B7,0.503
8,B8,0.727
9,B9,1.5
10,B10,2.67
11,B11,12.5
12,B12,1.67
13,B13,29.1
14,B14,46.6

# Biological target: T2, human APJ receptor (human, UniProt P35414 1-380)
# T2 sequence (looked up): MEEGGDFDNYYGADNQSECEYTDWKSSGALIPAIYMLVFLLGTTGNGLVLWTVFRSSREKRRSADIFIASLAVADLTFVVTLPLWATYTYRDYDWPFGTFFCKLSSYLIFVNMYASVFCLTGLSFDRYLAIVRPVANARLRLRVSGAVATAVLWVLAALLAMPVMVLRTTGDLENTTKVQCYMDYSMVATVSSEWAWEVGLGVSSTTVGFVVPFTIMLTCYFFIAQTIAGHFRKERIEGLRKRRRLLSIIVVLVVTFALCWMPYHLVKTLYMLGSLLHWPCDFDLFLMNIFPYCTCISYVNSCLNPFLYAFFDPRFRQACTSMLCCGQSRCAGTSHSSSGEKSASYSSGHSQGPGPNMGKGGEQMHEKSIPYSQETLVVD
# Assay: cell-based or functional assay
row,Binder,EC50 Human APJ Receptor [nM]
1,B1,0.0525
2,B2,41.5
3,B3,0.0934
4,B4,32.8
5,B5,1.96
6,B6,0.741
7,B7,0.305
8,B8,0.706
9,B9,0.297
10,B10,0.769
11,B11,3.4
12,B12,2.31
13,B13,17.9
14,B14,36.1
